Laboratory results reported in patent US20240279350A1 (Sanofi, published 2024).

B1: mAb3 (Y32K) (antibody, human IgG2, kappa, V domains shown)
VH: QVQLVQSGAEVKKPGASVKVSCKASGYTFTGKYMHWVRQAPGQGLEWMGWINPDSGGTNYAQKFQGRVTMTRDTSISTAYMELNRLRSDDTAVYYCARDQPLGYCTNGVCSYFDYWGQGTLVTVSS
VL: DIQMTQSPSSVSASVGDRVTITCRASQGIYSWLAWYQQKPGKAPNLLIYTASTLQSGVPSRFSGSGSGTDFTLTISSLQPEDFATYYCQQANIFPLTFGGGTKVEIKR
notes: Mutant of AbC1 with the same constant regions (IgG2)
B2: AbC1 (antibody, human IgG2, kappa, V domains shown)
VH: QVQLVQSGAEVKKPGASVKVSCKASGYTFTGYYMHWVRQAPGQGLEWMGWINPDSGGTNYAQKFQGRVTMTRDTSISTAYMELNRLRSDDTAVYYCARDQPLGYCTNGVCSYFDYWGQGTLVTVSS
VL: DIQMTQSPSSVSASVGDRVTITCRASQGIYSWLAWYQQKPGKAPNLLIYTASTLQSGVPSRFSGSGSGTDFTLTISSLQPEDFATYYCQQANIFPLTFGGGTKVEIKR
notes: Human IgG2; also called parental antibody; parental AbC1 antibody
B3: mAb1 (Y32K/S77A) (antibody, human IgG2, kappa)
heavy: QVQLVQSGAEVKKPGASVKVSCKASGYTFTGKYMHWVRQAPGQGLEWMGWINPDSGGTNYAQKFQGRVTMTRDTSIATAYMELNRLRSDDTAVYYCARDQPLGYCTNGVCSYFDYWGQGTLVTVSSASTKGPSVFPLAPCSRSTSESTAALGCLVKDYFPEPVTVSWNSGALTSGVHTFPAVLQSSGLYSLSSVVTVPSSNFGTQTYTCNVDHKPSNTKVDKTVERKCCVECPPCPAPPVAGPSVFLFPPKPKDTLMISRTPEVTCVVVDVSHEDPEVQFNWYVDGVEVHNAKTKPREEQFNSTFRVVSVLTVVHQDWLNGKEYKCKVSNKGLPAPIEKTISKTKGQPREPQVYTLPPSREEMTKNQVSLTCLVKGFYPSDIAVEWESNGQPENNYKTTPPMLDSDGSFFLYSKLTVDKSRWQQGNVFSCSVMHEALHNHYTQKSLSLSPGK
light: DIQMTQSPSSVSASVGDRVTITCRASQGIYSWLAWYQQKPGKAPNLLIYTASTLQSGVPSRFSGSGSGTDFTLTISSLQPEDFATYYCQQANIFPLTFGGGTKVEIKRTVAAPSVFIFPPSDEQLKSGTASVVCLLNNFYPREAKVQWKVDNALQSGNSQESVTEQDSKDSTYSLSSTLTLSKADYEKHKVYACEVTHQGLSSPVTKSFNRGEC
notes: Mutant of AbC1 with the same constant regions (IgG2); also called mAb1 double mutant; mAb1 (without masking moiety)
B4: MC4 (masked mAb1 comprising MM2 and CL2) (antibody, human IgG2, kappa)
heavy: QVQLVQSGAEVKKPGASVKVSCKASGYTFTGKYMHWVRQAPGQGLEWMGWINPDSGGTNYAQKFQGRVTMTRDTSIATAYMELNRLRSDDTAVYYCARDQPLGYCTNGVCSYFDYWGQGTLVTVSSASTKGPSVFPLAPCSRSTSESTAALGCLVKDYFPEPVTVSWNSGALTSGVHTFPAVLQSSGLYSLSSVVTVPSSNFGTQTYTCNVDHKPSNTKVDKTVERKCCVECPPCPAPPVAGPSVFLFPPKPKDTLMISRTPEVTCVVVDVSHEDPEVQFNWYVDGVEVHNAKTKPREEQFNSTFRVVSVLTVVHQDWLNGKEYKCKVSNKGLPAPIEKTISKTKGQPREPQVYTLPPSREEMTKNQVSLTCLVKGFYPSDIAVEWESNGQPENNYKTTPPMLDSDGSFFLYSKLTVDKSRWQQGNVFSCSVMHEALHNHYTQKSLSLSPGK
light: EVGSYYVCPVRFQYFCEESGRSAGGGGPLGLAGSGGSDIQMTQSPSSVSASVGDRVTITCRASQGIYSWLAWYQQKPGKAPNLLIYTASTLQSGVPSRFSGSGSGTDFTLTISSLQPEDFATYYCQQANIFPLTFGGGTKVEIKRTVAAPSVFIFPPSDEQLKSGTASVVCLLNNFYPREAKVQWKVDNALQSGNSQESVTEQDSKDSTYSLSSTLTLSKADYEKHKVYACEVTHQGLSSPVTKSFNRGEC
notes: Conditionally-active (masked) antibody
B5: mAb2 (Y32K/S77P) (antibody, human IgG2, kappa, V domains shown)
VH: QVQLVQSGAEVKKPGASVKVSCKASGYTFTGKYMHWVRQAPGQGLEWMGWINPDSGGTNYAQKFQGRVTMTRDTSIPTAYMELNRLRSDDTAVYYCARDQPLGYCTNGVCSYFDYWGQGTLVTVSS
VL: DIQMTQSPSSVSASVGDRVTITCRASQGIYSWLAWYQQKPGKAPNLLIYTASTLQSGVPSRFSGSGSGTDFTLTISSLQPEDFATYYCQQANIFPLTFGGGTKVEIKR
notes: as for B1
B6: mAb4 (Y32R) (antibody, human IgG2, kappa, V domains shown)
VH: QVQLVQSGAEVKKPGASVKVSCKASGYTFTGRYMHWVRQAPGQGLEWMGWINPDSGGTNYAQKFQGRVTMTRDTSISTAYMELNRLRSDDTAVYYCARDQPLGYCTNGVCSYFDYWGQGTLVTVSS
VL: DIQMTQSPSSVSASVGDRVTITCRASQGIYSWLAWYQQKPGKAPNLLIYTASTLQSGVPSRFSGSGSGTDFTLTISSLQPEDFATYYCQQANIFPLTFGGGTKVEIKR
notes: as for B1

Experiments:
human CD40 on cells [1] = molecular target: T1, human CD40 on cells (human, UniProt P25942 21-277); assay: cell-based or functional assay
T1 sequence (P25942 21-277 limits assumed): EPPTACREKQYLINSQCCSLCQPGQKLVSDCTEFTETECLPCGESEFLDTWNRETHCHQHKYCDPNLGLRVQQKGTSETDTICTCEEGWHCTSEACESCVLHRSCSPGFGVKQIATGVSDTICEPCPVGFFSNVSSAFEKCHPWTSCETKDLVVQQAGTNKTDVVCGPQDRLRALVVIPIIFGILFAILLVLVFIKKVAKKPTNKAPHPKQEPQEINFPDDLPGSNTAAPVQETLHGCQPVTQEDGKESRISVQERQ

[2] = molecular target: rhesus CD40 on HEK293H reporter cells (rhesus, UniProt F6SNI1 21-278); assay: cell-based or functional assay
recombinant human CD40 = molecular target: T2, recombinant human CD40 (human, UniProt P25942 21-193); assay: SPR (Biacore 8K+), antibody captured on protein A/G, recombinant hCD40 as analyte, 1:1 model
T2 construct: Soluble analyte in SPR; also called Recombinant hCD40; hCD40
T2 sequence (P25942 21-193 limits assumed): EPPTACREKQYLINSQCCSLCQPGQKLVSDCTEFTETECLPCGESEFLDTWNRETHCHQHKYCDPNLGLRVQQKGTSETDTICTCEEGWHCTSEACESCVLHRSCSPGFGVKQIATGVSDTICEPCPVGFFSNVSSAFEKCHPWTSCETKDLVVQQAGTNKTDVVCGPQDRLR
Experimental: Protein A/G was immobilized to the surface of a CM5 series S chip using amine chemistry. Test compounds were then captured to the surface between 120 RU and 170 RU. Recombinant hCD40 was diluted 2-fold from 300 nM to 2.34 nM in HBS-EP+buffer. […] Glycine (10 mM) pH 1.5 was used to regenerate the chip surface. The binding affinity (KD) was determine using a 1:1-binding model by a global fit of all the concentrations.

human CD40 on cells [3] = molecular target: T1, human CD40 on cells; assay: flow cytometry on human primary naive B-cells, 1 h at 4 °C, AF488-conjugated secondary antibody (MFI)
Experimental: (§1) Naive B-cell were plated at a density of […] cells per well in 96-well plates and incubated with CD40 agonists, hexameric ligand and anti-CD40 antibodies, for 1 hour at 4° C.

[4] = molecular target: T3, cynomolgus CD40 on HEK293 cells (cynomolgus, UniProt G7PG38 21-278); assay: flow cytometry on cynomolgus CD40-expressing HEK293 cells, 1 h at 4 °C, AF488-conjugated secondary antibody (MFI)
T3 construct: whole, on cells; also called cyno CD40; cynoCD40-expressing HEK293 cells
Experimental: Cyno CD40-expressing HEK293 cells were plated at a density of 50×10³ cells per well in 96-well plates and incubated with serially diluted concentrations of CD40 agonists, hexameric ligand and anti-CD40 antibodies, for 1 hour at 4° C. Cells were then harvested and incubated with AF488-conjugated secondary antibody before flow cytometry analysis using a Fortessa X20.
Data from the flow cytometer was analyzed using FlowJo (V10.8.1), then the binding curves, the Eₘₐₓ, and EC₅₀ values were plotted using GraphPad Prism (V9.1.2).

human CD40 on cells [5] = molecular target: T1, human CD40 on cells; assay: cell-based or functional assay; remark: listed apart in the source
human CD40 on cells [6] = molecular target: T1, human CD40 on cells; assay: cell-based or functional assay; remark: listed apart in the source
human CD40 on cells [7] = molecular target: T1, human CD40 on cells; assay: flow cytometry on human primary naive B-cells, 1 h at 4 °C, AF488-conjugated secondary antibody (MFI); remark: listed apart in the source
Experimental: as §1

human CD40 on cells [8] = molecular target: T1, human CD40 on cells; assay: flow cytometry on U-2 OS/NFκB cells (further experiment), APC-conjugated anti-human IgG secondary antibody (median fluorescence intensity)
Experimental: (§2) Briefly, cultured U-2 OS/NFκB cells were seeded in 96-well plates at 1.0×10⁵ cells/well and incubated with serially-diluted test antibodies for 60 minutes at 4° C. in 2% FBS/dPBS buffer. The cells were then washed twice with dPBS and further incubated with secondary allophycocyanin (APC)-conjugated AffiniPure F(ab′)₂ fragment donkey anti-human IgG (H+L) antibody (Jackson ImmunoResearch, Ref. 709-136-149) (1:500) for 30 minutes at 4° C. Finally, the cells were washed twice with dPBS and suspended in FACS buffer for flow cytometry analysis. MFI values vs concentrations were analyzed by FlowJo and data were further fitted with four-parameter non-linear regression to get EC₅₀ values by GraphPad Prism software.

human CD40 on cells [9] = molecular target: T1, human CD40 on cells; assay: cell-based or functional assay; remark: listed apart in the source
human CD40 on cells [10] = molecular target: T1, human CD40 on cells; assay: cell-based or functional assay; remark: listed apart in the source
human CD40 on cells [11] = molecular target: T1, human CD40 on cells; assay: flow cytometry on U-2 OS/NFκB cells
Experimental: as §2

human CD40 on cells [12] = molecular target: T1, human CD40 on cells; assay: flow cytometry on Raji cells; EC50 relative to mAb1
Experimental: as §2, with “Raji” for “cultured U-2 OS/NFκB”

human CD40 on cells [13] = molecular target: T1, human CD40 on cells; assay: flow cytometry on U-2 OS/NFκB cells; EC50 relative to mAb1
Experimental: as §2

human CD40 on cells [14] = molecular target: T1, human CD40 on cells; assay: flow cytometry on Raji cells; binding to Raji cells, flow cytometry
Experimental: as §2, with “Raji” for “cultured U-2 OS/NFκB”

human CD40 on cells [15] = molecular target: T1, human CD40 on cells; assay: flow cytometry on Raji cells
Experimental: as §2, with “Raji” for “cultured U-2 OS/NFκB”

Binder | EC50, NFkB-luciferase reporter assay, human NFkB-Luc2P/U-2 OS cells (human CD40 on cells [1]) [nM] | Top, NFkB-luciferase reporter assay, human NFkB-Luc2P/U-2 OS cells (human CD40 on cells [1]) [nM] | EC50, luciferase reporter assay, HEK293H rhesus CD40 reporter cells [2] [nM] | Top, luciferase reporter assay, HEK293H rhesus CD40 reporter cells [2] [nM] | Kd (recombinant human CD40) [nM] | koff (recombinant human CD40) [s⁻¹] | kon (recombinant human CD40) [M⁻¹ s⁻¹] | EC50 (read off the curve) (human CD40 on cells [3]) [nM] | EC50 (read off the curve) [4] [nM] | EC50, CD83 expression, B-cells of hCD40 KI mice (human CD40 on cells [5]) [nM] | EC50, CD86 expression, B-cells of hCD40 KI mice (human CD40 on cells [5]) [nM] | EC50, CD83 expression, MoDC maturation assay (human CD40 on cells [6]) [nM] | EC50, IL-8 release, MoDC maturation assay (human CD40 on cells [6]) [nM] | EC50 (read off the curve) (human CD40 on cells [7]) [nM] | EC50 (read off the curve) (human CD40 on cells [8]) [nM] | EC50, luciferase reporter assay in U-2 OS/NFκB cells (human CD40 on cells [9]) [nM] | Relative masking efficacy, luciferase reporter assay in U-2 OS/NFκB cells (human CD40 on cells [9]) [fold] | EC50, CD86 expression, primary human B-cell activation assay (human CD40 on cells [10]) [nM] | Relative masking efficacy, CD86 expression, primary human B-cell activation assay (human CD40 on cells [10]) [fold] | Relative masking efficacy, CD83 expression, B-cells of hCD40 KI mice (human CD40 on cells [5]) [fold] | other results
B1 | 0.44 | 48.9 | 0.59 | 3.54 | 91 | 0.0041 | 45000 | ~5 | ~2 |  |  |  |  |  |  |  |  |  |  |  | 
B2 | 1.43 | 16.2 | 0.09 | 1.91 | 18 | 0.0019 | 110000 | ~4 | ~1 | 0.034 | 0.011 | 1.02 | 1.92 | ~1 | ~2 |  |  |  |  |  | 
B3 | 0.52 | 53.6 | 0.49 | 3.91 | 65 | 0.0034 | 52000 |  | ~2 | 0.051 | 0.031 | 0.49 | 0.21 | ~2 | ~2 | 0.238 | 1 | 0.175 | 1 | 1 | Relative masking efficacy, CD86 expression, B-cells of hCD40 KI mice (human CD40 on cells [5]): 1 fold; EC50 (human CD40 on cells [11]): 1.5 nM; Relative masking efficacy (human CD40 on cells [12]): 1 fold; Relative masking efficacy (human CD40 on cells [13]): 1 fold; EC50 (human CD40 on cells [14]): 1.34 nM
B4 |  |  |  |  |  |  |  |  |  | 1.24 | 1.05 | 17.2 | 12.2 |  |  | 45.8 | 193 | 14.7 | 84 | 24.3 | Relative masking efficacy, CD86 expression, B-cells of hCD40 KI mice (human CD40 on cells [5]): 33.8 fold; EC50 (human CD40 on cells [15]): 143 nM; EC50 (human CD40 on cells [11]): 176 nM; Relative masking efficacy (human CD40 on cells [12]): 107 fold; Relative masking efficacy (human CD40 on cells [13]): 118 fold
B5 | 0.54 | 45.2 |  |  |  |  |  |  |  |  |  |  |  | ~2 |  |  |  |  |  |  | 
B6 |  |  |  |  |  |  |  |  |  |  |  |  |  |  |  |  |  |  |  |  | binding result (human CD40 on cells [3]): binds
